In publication PMC8808184 (The Journal of Biological Chemistry, 2021):

T1: FN1–FN3 region of CNTN5 titrated against human APLP1(E1) and human APLP2(E1) ( (chicken, human, mouse and …, UniProt O94779 673-972))
T1 construct: contactin 5, FN1–FN3; source: E. coli BL21(DE3), purified (IMAC, 3C protease cleavage, ion exchange, gel filtration)
T1 sequence (looked up): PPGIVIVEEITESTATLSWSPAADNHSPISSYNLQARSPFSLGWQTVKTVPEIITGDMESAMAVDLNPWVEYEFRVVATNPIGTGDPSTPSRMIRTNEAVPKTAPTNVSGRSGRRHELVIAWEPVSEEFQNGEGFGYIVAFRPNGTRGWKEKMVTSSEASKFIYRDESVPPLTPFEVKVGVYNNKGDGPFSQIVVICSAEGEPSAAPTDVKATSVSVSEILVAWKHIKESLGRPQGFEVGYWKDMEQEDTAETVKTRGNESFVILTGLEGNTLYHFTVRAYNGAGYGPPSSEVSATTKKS

B1: E1 domain of human APLP2 (domain or fragment, UniProt Q06481 46-205, looked up)
chain: AVAEPQIAMFCGKLNMHVNIQTGKWEPDPTGTKSCFETKEEVLQYCQEMYPELQITNVMEANQRVSIDNWCRRDKKQCKSRFVTPFKCLVGEFVSDVLLVPEKCQFFHKERMEVCENHQHWHTVVKEACLTQGMTLYSYGMLLPCGVDQFHGTEYVCCPQ
modifications: biotin (EZ-Link NHS-PEG4-Biotin, 1:1 molar ratio)
notes: human amyloid beta precursor like protein 2, E1 domain; host and tags are those told for the E1 domains in general; source: E. coli Origami2(DE3), purified (as told for the E1 domains)
B2: FN1–FN3 region of human CNTN4 (domain or fragment, UniProt Q8IWV2 599-899, looked up)
chain: PPEAVTIDEITDTTAQLSWRPGPDNHSPITMYVIQARTPFSVGWQAVSTVPELIDGKTFTATVVGLNPWVEYEFRTVAANVIGIGEPSRPSEKRRTEEALPEVTPANVSGGGGSKSELVITWETVPEELQNGRGFGYVVAFRPYGKMIWMLTVLASADASRYVFRNESVHPFSPFEVKVGVFNNKGEGPFSPTTVVYSAEEEPTKPPASIFARSLSATDIEVFWASPLEKNRGRIQGYEVKYWRHEDKEENARKIRTVGNQTSTKITNLKGSVLYHLAVKAYNSAGTGPSSATVNVTTRKP
notes: human contactin 4, FN1–FN3; source: E. coli BL21(DE3), purified (IMAC, 3C protease cleavage, ion exchange, gel filtration)

Experiments:
Assay in all cases: BLI; biotinylated E1 domain ([…] nM) immobilised on streptavidin tips, CNTN FN1–FN3 in solution; room temperature; 150 mM NaCl, 10 mM Na-Hepes pH 7.5, 1 mg/ml BSA, 0.02% Tween-20; BLItz or Octet K2; KD from the signal at equilibrium
Details in all cases: both partners purified
[1] = molecular target: T1, FN1–FN3 region of CNTN5 titrated …
[2] = molecular target: B2
E1 domain of human APLP2 = molecular target: B1

Binder | Kd [1] | Kd [2] | fold decrease in affinity against human CNTN4 with APLP1 (E1 domain of human APLP2)
B1 | ~38 µM | 6.3 µM | 
B2 |  |  | 4 fold
